Experimental data taken from the nanobody polyreactivity screen of Harvey et al. (2022).

Assay: yeast display, Sf9 membrane polyspecificity reagent, FACS + sequencing; frameworks hold sequencing errors
Procedure, shortened: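 Using colony PCR, genes from sorted yeast display clones were amplified, then sequenced on MiSeq at 2 × 250 and filtered by CDR length. The clones had been stained with 10% biotinylated, detergent-solubilized Sf9 membrane reagent for 1 hour at 4 °C and sorted by FACS into low and high (top ~1%) gates on anti-HA and streptavidin fluorescence. Polyreactivity labels come from the gate of origin.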

Sequence	polyreactivity (PSR sort gate)
QVQLQESGACLVLAGGSLRMSCASSGYIFDTCPMGGYRQAPGKEREFVASIDHGSNTYYADSVKGRFTISRDSAKNTVYLQLNSLKPEDTAVYYCAVRDDGSYTYGNWGQGTQVSVSS	high polyreactivity
QVQLVESGGGLVQAGGSLRLSCAASGRIFYYNTMGWYRQAPGKERELVAAITTNGGSTYYADSVKGRFTISRDNAKNTVYLQMNSLKPLDTAVYYCKRDRYPYYYAYNYWGQGTQVTVSS	low polyreactivity
QDQLVESAGGLVQAGGSLRLSCAASGSTSQSNAMGWYREAPGKDRELVAAISWSGTSTYYADSVKGRFTISRDNAKNTVYLQMNRLKPEDTAGYYCAADYIFEYDYWGQGTQVTVSS	low polyreactivity
QVQLVESGGGLVQAGGSLRLSCAASGRPFHRNAMGWYRPAPGKERELVAAITGDGRTNYADSVKGRFTLSRDNAKNTVYLQMNSLKPEDTAFYYCAAEAVWFVGQAFDISDSTTYGFWGQGTQVTVSS	low polyreactivity
QVQLVESGGGLVQAGGSLRLSCAASGLIFIYNTMGWSRQAPGKERELVAAISGRGGSTYYADSVKGRFTISRDNAKNTVYLQMNSLKPEDTAVYYCAAQDTYHSYGLYSWGQGTQVTVSS	low polyreactivity
QVQLVESGGGLVQAGGSLRLSCAASGSIFDFYAMGWYRQAPGKERELVAAIDDIDDSTYYADSVKGRFTISRDNAKNTVYLQMNCLNPEDTAVYYCAAELRPGYRSSYGLIYDYWGQGTQVTVSS	low polyreactivity
QVQLVESGGGLVQAGGSLRLSCAASGRTFRTYAMGWYRQAPGKERELVAAISRTGRTNYADSVKGRFTISRDNAKNTVYLQMNSLKPEDTAVYYCAADRVGWSGYRGDYWGQGTQVTVSS	high polyreactivity
QVQLVESGGGLVQAGGSLRLSCAASGFTFSRNAMGWYRQAPGKERELVAAIDSGGSTDYADSVKGRFTISRANAKKTVYLQMNSLKPEDTAVYYCAKASSATRYVQLRQDYDYWGQGTQVTVSS	low polyreactivity
QFQLVESGGGLVQAGGSLRLSCAASGRTLYGYAMGLYRQAPGKERELVAAISGSGTITYYADSVKGRFTISRDNAKNTVYLQMNSLKPEDTAVYYCNKRRAGQSRRVDSWGQGTQVTVSS	high polyreactivity
QVQLVESGGGLVQAGGSLRLSCAASGSIFVYNAMGWYRQAPGNERELVAGINYSGGSTYYADSVKGRFTISRDNATNTVYLQMNSLKPEDTAVYSCARRRPYQWPYNYWGQGTQVTVSS	high polyreactivity
QVQLVESGGGLVQAGGSLRLSSAASGRIIKIYAMGWYRQAPGKERELVAAISGRGGSTYYADSVKGRFTISRDNAKYTVYLQMNSLKPEDTAVYYCAAVGYGFSAYSTYDYWGQGTQVTVSS	high polyreactivity
QVQLVESGGGLVQAGGSLRLSCAASGGIIRVYVMGWSRQAPGKERELVAAISRRGGSTYYADSVKGRFTISRDNAKNTVYLQMNSLKPEDTAVYYCAAAVRPRANTTYQRPRYYYWGQGTQVTVSS	high polyreactivity
QVQLVESGGGLVQAGGSLRLSCAASGGILVGYAMGWYRQAPGKERELVAAINYSGGSTNYADSVKGRFTISRDNAKNTVYLQMNSLKPVDTAVYYCAARSTARYGYWGQGTQVTVSS	low polyreactivity
QVQLVESGGGLVQAGGSLRLSCAASASTFYLYAMGWYRQAPGKERELVAAISRGGTTYYADSVKGRFTISRDNEKNSVYLQMNSLKPEDTAVYYCNKLRRYSEYNADYGDYWGQGTQVTVSS	high polyreactivity
QVQLVESGGGLVQAGGCLRLSCAASGFTLRYNAMGWSRQAPGKERELVAAITTGGRTNYADSVKGRFTISRDNAKKTVYLQMNSLKPEDTAVYNCNKVFRSFDYWGQGTQVTVSS	high polyreactivity
QVQLVESGGGLVQAGGSLRLSCAASGSTFPDYSKGWYRQAPGKERLLVADITYGGSSTYYADSVKGRFTISSDNAKNTVYLQMNSLKPDDTAVYYCAADTDYYTLIRSVLAYDYWGQGTQVTVSS	low polyreactivity
QVQLVESGGGLVQAGGSLRLSCAASGRIIYPYALGWYRQAPGKERELVAAISSGSSTNYADSVKGRFTISRDNAKNTVYLQMNSLQPEDTAVYYCNADLVSGVVYDSDYWGQGTQVTVSS	low polyreactivity
QVHLVESGGGLVQAGGSLRLSCAASGSTNYYAMGRYRQAPGKEREFVSAISRDASSTYYADSVKGRFTISRDNAKNTVYLQMNSLKPEDTAVYYCAARIIRFSTSADKLVTSRYYYWGQGTQVTVSS	high polyreactivity
QVQLVESGGGLVQAGGSLRLSCAASGLTFVDNAMGWYRQAPGKESELVAAITKRGGRTYYADSVKGRFTISRDNAKNTFYLQMNSLKPEDTAVYYCARESGNDSSRRLDYWGQGTQVTVSS	low polyreactivity
QVQLVESGGGLDQAGGSLRLSCAASGYTFNLNAMGWYRQAPGKERELVAAISSGDSTDYADSVKGRFTISRDNAKNTVYLQMHSLQPEDTAVYYCNADLPVVWRRDFWGDLYWGQATQVTVSS	low polyreactivity
QVQHVESGGGIVHAGGSLRLSCAASGSIFTRYTMGWDRMATGKERELVAVISDSSGRTYYADSVKGRFTISRDNAKNTFYLQLNSLKPADTAVYYCAAEYSDIYEYWGQGTQVTVSS	low polyreactivity
QVQLVESGGGLVQAGGSLRLSCAASGRIFFVYAMGWYRQAPGKERELVAGIRSSGGSTYYADSVKGRFTISRDNAKNTVYLQMNSLKPEDTAVYYCAARRVGYPSPYSTYGMYYWGQGTQVTVSS	high polyreactivity

Sequence	polyreactivity (PSR sort gate)
QVHLVESGGGLVQAGGSLRLSCAASGFTLYYYMGWYRQAPGKERELVAGISNSGSTSYADSVKGRFTISRDNAKNTVYLQMNSLKPEDTAVYYCNAYYPAWYLDRYYYWGQGTQVTVSS	high polyreactivity
QVQLVESGGGLVQAGGSLRLSCAASGITFDGYDMGWYRQAPGKEREMVATIDSGGITYYADSVKGRFTISRDNAKNTVYLQMNSLKPEDTAVYYCNADEWYYNFDIVEFDYWGQGTQVTVSS	low polyreactivity
QVQLVESGGGLVQAGGSLRLSCAASGIIYAANPMGWYRQAPGKERELVAAISKNGGITYYADSVKGRFTISRDNAKNTVYLQMNSLKPEDTAVYYCAARWRQTRRYYYWGQGTQVTVSS	high polyreactivity
QVQLVESGGGLVQAGGSLRLSCAASGSIFYRNAMGWYRQAPGKERELVAAISASGGSTYYADSVKGRFTISRDNAKNTVYLQMNSLKPEDTAVYYCAASRYYSRYDYWGQGTQVTVSS	high polyreactivity
QVQLVESGGGLVQPGGSLRLSCAASGFTFRGYDMGWYRQAPGTERELVAGITWGDDSTYYADSVKGRFTISRDNAKNTVYLQMNSLKPEDTAVYYCATYFRVYYSQYDYWGEGTQVTVSS	high polyreactivity
QVQLVESGGGLVQAGGSLRLSCAASGYTFRHYAMGWYRQEPGKERELVAAITFNGGTTYYADSVKGRFTISRDNAKNTVYLQMNSLKPEDTAVYYCNALPYSRGRWRPLSAVDYWGQGTQVTVSS	high polyreactivity
QVQLVESGGGLVQAGGSLRLSCAASGHIFPTNAMGWYRQAPGKERELVAVISESVGSTYYADSVKGRFTISRDNAKNTVYLQMNSLKPEDTAVYYCAVRSRTPRAYYYWGQGTQVTVSS	low polyreactivity
QVQLVESCGGLVQAGGSLRLICDDSGNTFNRYAMGWYRQAPGKERELVADITSGGRTYYAYSVKGRFTISRDNAKNTVYLQMNSVKPVDTAVYYCAGEWWDLGNFYWSYRYDYWGQCTQVTVSS	high polyreactivity
QVQLVESGGGLVQAGGSLRLSCAASGLTFRRYAMGWYRQAPGKERELVAAISSSGGNTYYADSVKGRFTISRDNAKNTVYLQMNSLQPEDTAVYYCATRYKSPSFDYWGQGTQVTVSS	high polyreactivity
QVQLVESGGGLVQAGGSLRLSSAASGSTFLYVMGWYRQAPGKERELVAAISESGGSTYYADSVKGRFTISRDNAKNTVYLQMNSLKPEDTAVYYCAADLPTGLQYRYYRVDYWGHGTQVTVSS	low polyreactivity
QVQLVESGGGLVQAGGSLRLSCAASGNIFSYYAMGWYRQAPGKERELVAAIYTGGSTYYADSVKGRFTISRDNAKNTVYLQMNSLKPEDTAVYYCAARGLKLRQDYDYWGQGTQVTVSS	low polyreactivity
QDQLVESGGGLVQAGGSLRLSCAASGLSFASYVMGWYRQAPGKERELVAAISSSGDSTYYADSVKGRFTLSRDNAKNTVYLQMNSLKPEDTAVYYCAAKDYVWGQGTQVTVSS	low polyreactivity
QVQLVESGGGLVQAGGSLRLSCAASGFTFTYNDMGWYRQAPGKEREFVAAISSTGGSTYYADSVQGRFTISRDNAKNTVYLQMNSLKPEDTAVYYCAAEDSWYWDAWFDYWGQGTQVTVSS	low polyreactivity
QVQLQESVGGQVQAGGSLRLSCAASGTIFLYAFIGWYRQAPGKEPELVAAIDVGTTTNYADSVKGRFTISRDNAKNTVYLQMNSLKPEDTAVYYCAANLGYLDDLGYWGQGTQVTVSS	low polyreactivity
QVQHVESGGGLVQAVVSLRLSCAATGRIISYNAMGWYRQAPGKEWELVAAISWVGGSTYYADSVKGRFTISRDIAKNTVYLQMNCLKPEDTAVYYCAKGWYRIKRNDYWGQGTQVTVSS	low polyreactivity
QVQLVESGGGLVQAGGSLRLSCAASGRIFYRNVMGWNRQAPGKERELVAAITYRTGSTYYADSVKGRFTISRDNAKNTVYLQMNSLKPEDTAVYYCNVVPRNGQTWGYEYDYWGQGTQVTVSS	high polyreactivity
QVQLVETGGGLVQAGGSLRLSCAASGSTFPRYAMVWSRQAPGKESEYVAVNWSGGSTYYADSVKGRFTISRDNAKNTVYLQMNSLKPEDTAVYYCAAEYHTLSKYSGYATHDYWGQGTQVTVSS	low polyreactivity
QVQLVESGGGLVQAGGSLRLSCAASGSTFRRYAMGWYRQAPGKERELVATITSGGRTNYADSVKGRFTISRDNAKNTVYLQMNSLKPEDTAVYYCADRPYFYERSAGYYWGQGTQVTVSS	high polyreactivity
QVQLVESGGGLVQAGGSLRLSCAASGSTFPSNAMGGYRQAPGKARELDAAISDSGSTTYYADSVKGRFTISRDNAKNTVYLQMNSLKPEDTAVYYCNADWWQYDFVFWTFGYDDWGQGTQVTLSS	low polyreactivity
QVQHVESGGGLVQAGGSLRLSCAASGSIFGKYAMGWYRQAPGKERELVARISRSSGSTYYADSVKGRFTISRDNAKNTVYLQMNSLKPEDTAVYYCAARAYLNQARPKYGYSYDYWGQGTQVTVSS	high polyreactivity
QVQLVESGGGLVQAGGSLRLSCAASGRTSHRNVMGWYRQAPGTEREVVARISRSGGRTYYADSVKGRFTISRDNAKNTVYSQMNSLKPEDTAVYYCNADYSSRGANYDYWGQGTQVTVSS	high polyreactivity
